Substitutions are numbered along the chain they refer to. Numbers in names are those of the source. Values belong to the binder of their own block, whether it stands above or below them.
What was measured:
[1] = target: the molecule itself; assay: SDS-PAGE in non-reducing conditions
VEGFR-2-Ig = VEGFR-2-Ig (UniProt P35968 20-764); assay: ELISA
VEGFR-3-Ig = target: T1, VEGFR-3-Ig (UniProt P35916 25-775); assay: ELISA
T1 sequence (looked up): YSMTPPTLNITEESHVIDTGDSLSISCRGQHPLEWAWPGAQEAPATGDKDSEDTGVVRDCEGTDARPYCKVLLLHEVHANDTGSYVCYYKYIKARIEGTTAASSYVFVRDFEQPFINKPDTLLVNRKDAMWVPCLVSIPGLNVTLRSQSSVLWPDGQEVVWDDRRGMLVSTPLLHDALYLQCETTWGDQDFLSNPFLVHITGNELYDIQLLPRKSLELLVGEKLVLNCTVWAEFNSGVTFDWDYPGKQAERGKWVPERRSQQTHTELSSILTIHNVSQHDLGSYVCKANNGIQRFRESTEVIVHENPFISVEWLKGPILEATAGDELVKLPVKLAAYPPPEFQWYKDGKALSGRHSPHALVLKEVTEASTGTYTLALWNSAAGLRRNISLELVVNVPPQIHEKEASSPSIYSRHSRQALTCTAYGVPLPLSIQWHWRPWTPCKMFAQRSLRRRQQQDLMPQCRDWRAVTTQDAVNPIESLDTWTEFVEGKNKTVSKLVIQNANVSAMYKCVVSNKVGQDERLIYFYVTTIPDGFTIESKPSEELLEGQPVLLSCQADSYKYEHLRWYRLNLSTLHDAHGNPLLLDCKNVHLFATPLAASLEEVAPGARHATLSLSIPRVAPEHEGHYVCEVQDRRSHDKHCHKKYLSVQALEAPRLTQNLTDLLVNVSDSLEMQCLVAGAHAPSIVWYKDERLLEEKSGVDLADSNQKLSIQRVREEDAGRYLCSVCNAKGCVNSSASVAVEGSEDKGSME

[2] = target: the molecule itself; assay: SDS-PAGE after treatment with DTT
[3] = target: T2, VEGFR-3 (protein used in isothermal titration calorimetry) (UniProt P35916 25-775); assay: ITC
T2 sequence (looked up): T1 sequence (looked up)

VEGFR-2-Ig, sequence (P35968 20-764): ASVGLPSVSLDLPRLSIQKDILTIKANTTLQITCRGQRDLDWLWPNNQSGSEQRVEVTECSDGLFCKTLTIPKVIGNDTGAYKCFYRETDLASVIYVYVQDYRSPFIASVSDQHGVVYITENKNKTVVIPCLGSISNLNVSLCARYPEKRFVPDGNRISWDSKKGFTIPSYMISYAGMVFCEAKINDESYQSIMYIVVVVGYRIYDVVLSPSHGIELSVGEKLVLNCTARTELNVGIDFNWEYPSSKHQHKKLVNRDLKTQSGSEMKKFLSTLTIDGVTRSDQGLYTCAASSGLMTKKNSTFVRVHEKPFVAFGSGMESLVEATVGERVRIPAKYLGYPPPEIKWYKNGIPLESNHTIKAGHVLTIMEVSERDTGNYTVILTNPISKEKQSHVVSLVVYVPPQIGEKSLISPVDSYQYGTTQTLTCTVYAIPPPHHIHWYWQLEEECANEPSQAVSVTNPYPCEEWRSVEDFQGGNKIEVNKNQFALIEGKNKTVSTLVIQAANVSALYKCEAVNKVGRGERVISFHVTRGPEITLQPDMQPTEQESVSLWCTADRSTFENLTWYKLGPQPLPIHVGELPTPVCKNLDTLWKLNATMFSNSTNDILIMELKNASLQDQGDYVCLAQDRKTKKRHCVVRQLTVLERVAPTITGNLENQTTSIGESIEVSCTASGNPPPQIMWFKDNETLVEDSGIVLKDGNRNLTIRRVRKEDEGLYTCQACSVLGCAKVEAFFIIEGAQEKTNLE

B1: hVEGF-Csf C137A, from transfected 293T cell medium (ligand, human, UniProt P49767 112-227, looked up)
chain: AHYNTEILKSIDNEWRKTQCMPREVAIDVGKEFGVATNTFFKPPCVSVYRCGGCCNSEGLQCMNTSTSYLSKTLFEITVPLSQGPKPVTISFANHTSCRCMSKLDVYRQVHSIIRR
stoichiometry N [1]: 2

EC50 (VEGFR-2-Ig): 2.7 ± 0.6 nM
EC50 (VEGFR-3-Ig): 1.3 ± 0.3 nM
Kd [3]: 280 ± 30 nM
B2: purified hVEGF-Csf C137A (ligand, human, UniProt P49767 112-227, looked up)
chain: B1 chain
stoichiometry N [2]: 2

EC50 (VEGFR-2-Ig): 2.6 ± 0.3 nM
EC50 (VEGFR-3-Ig): 2.2 ± 0.6 nM
Kd [3]: 310 ± 50 nM
B3: purified human VEGF-Csf (ligand, UniProt P49767 112-227, looked up)
chain: B1 chain with A26C
